These results are taken from paper PMC11293393, “ChAHP2 and ChAHP control diverse retrotransposons by complementary activities” (Genes & Development, 2024).

To fix the notation:
B1: His-ADNP2 (natural protein, human, UniProt Q6IQ32 1-1131, looked up)
chain: MFQIPVENLDNIRKVRKKVKGILVDIGLDSCKELLKDLKGFDPGEKYFHNTSWGDVSLWEPSGKKVRYRTKPYCCGLCKYSTKVLTSFKNHLHRYHEDEIDQELVIPCPNCVFASQPKVVGRHFRMFHAPVRKVQNYTVNILGETKSSRSDVISFTCLKCNFSNTLYYSMKKHVLVAHFHYLINSYFGLRTEEMGEQPKTNDTVSIEKIPPPDKYYCKKCNANASSQDALMYHILTSDIHRDLENKLRSVISEHIKRTGLLKQTHIAPKPAAHLAAPANGSAPSAPAQPPCFHLALPQNSPSPAAGQPVTVAQGAPGSLTHSPPAAGQSHMTLVSSPLPVGQNSLTLQPPAPQPVFLSHGVPLHQSVNPPVLPLSQPVGPVNKSVGTSVLPINQTVRPGVLPLTQPVGPINRPVGPGVLPVSPSVTPGVLQAVSPGVLSVSRAVPSGVLPAGQMTPAGQMTPAGVIPGQTATSGVLPTGQMVQSGVLPVGQTAPSRVLPPGQTAPLRVISAGQVVPSGLLSPNQTVSSSAVVPVNQGVNSGVLQLSQPVVSGVLPVGQPVRPGVLQLNQTVGTNILPVNQPVRPGASQNTTFLTSGSILRQLIPTGKQVNGIPTYTLAPVSVTLPVPPGGLATVAPPQMPIQLLPSGAAAPMAGSMPGMPSPPVLVNAAQSVFVQASSSAADTNQVLKQAKQWKTCPVCNELFPSNVYQVHMEVAHKHSESKSGEKLEPEKLAACAPFLKWMREKTVRCLSCKCLVSEEELIHHLLMHGLGCLFCPCTFHDIKGLSEHSRNRHLGKKKLPMDYSNRGFQLDVDANGNLLFPHLDFITILPKEKLGEREVYLAILAGIHSKSLVPVYVKVRPQAEGTPGSTGKRVSTCPFCFGPFVTTEAYELHLKERHHIMPTVHTVLKSPAFKCIHCCGVYTGNMTLAAIAVHLVRCRSAPKDSSSDLQAQPGFIHNSELLLVSGEVMHDSSFSVKRKLPDGHLGAEDQRHGEEQPPILNADAAPGPEKVTSVVPFKRQRNESRTEGPIVKDEALQILALDPKKYEGRSYEEKKQFLKDYFHKKPYPSKKEIELLSSLFWVWKIDVASFFGKRRYICMKAIKNHKPSVLLGFDMSELKNVKHRLNFEYEP
notes: ADNP2, human, full length, amino acid residues 1-1131; pFast-Bac-derived vector; also called full-length human ADNP2; source: Trichoplusia ni High5 cells (baculovirus), coexpressed with Strep-HP1β; in lysate for the pull-down, Strep-Tactin eluate for SEC-MALS; not shown: His6, N-terminal, kept
B2: Strep-HP1β (natural protein)
chain: not shown
notes: HP1β (CBX1), human, full length, amino acid residues 1-185; pFast-Bac-derived vector; also called full-length human HP1β; source: Trichoplusia ni High5 cells (baculovirus), coexpressed with His-ADNP2; in lysate for the pull-down, Strep-Tactin eluate for SEC-MALS; not shown: Strep tag II, N-terminal, kept

For one experiment, the target named is T1, His-CHD4 (human, UniProt Q14839 1-1912).
T1 construct: CHD4, human, full length, amino acid residues 1-1912; pAC8-derived vector; also called full-length human CHD4; source: Trichoplusia ni High5 cells (baculovirus), expressed separately; in lysate for the pull-down, Strep-Tactin eluate for SEC-MALS; not shown: His6, N-terminal, kept
In words: SEC-MALS; Strep-Tactin eluate, ~4-5 mg/mL, Superose 6 Increase 10/300 GL, 50 mM HEPES-OH pH 7.4, 150 mM NaCl, 0.5 mM TCEP. The conditions noted are these: both partners purified.

The target of the experiment “His-ADNP2” is B1. As to the kind of experiment: pull-down; High5 cell pools (His-ADNP2 + Strep-HP1β coexpressed; His-CHD4 separately) mixed and lysed; cleared lysate over Strep-Tactin sepharose, 50 mM Tris pH 7.5, 300 mM NaCl, 0.1% Triton X-100; eluted with 2.5 mM desthiobiotin; SDS-PAGE and Coomassie staining. The note with it: partners not purified.

T1 sequence (Q14839 whole entry, the tested form may be a part): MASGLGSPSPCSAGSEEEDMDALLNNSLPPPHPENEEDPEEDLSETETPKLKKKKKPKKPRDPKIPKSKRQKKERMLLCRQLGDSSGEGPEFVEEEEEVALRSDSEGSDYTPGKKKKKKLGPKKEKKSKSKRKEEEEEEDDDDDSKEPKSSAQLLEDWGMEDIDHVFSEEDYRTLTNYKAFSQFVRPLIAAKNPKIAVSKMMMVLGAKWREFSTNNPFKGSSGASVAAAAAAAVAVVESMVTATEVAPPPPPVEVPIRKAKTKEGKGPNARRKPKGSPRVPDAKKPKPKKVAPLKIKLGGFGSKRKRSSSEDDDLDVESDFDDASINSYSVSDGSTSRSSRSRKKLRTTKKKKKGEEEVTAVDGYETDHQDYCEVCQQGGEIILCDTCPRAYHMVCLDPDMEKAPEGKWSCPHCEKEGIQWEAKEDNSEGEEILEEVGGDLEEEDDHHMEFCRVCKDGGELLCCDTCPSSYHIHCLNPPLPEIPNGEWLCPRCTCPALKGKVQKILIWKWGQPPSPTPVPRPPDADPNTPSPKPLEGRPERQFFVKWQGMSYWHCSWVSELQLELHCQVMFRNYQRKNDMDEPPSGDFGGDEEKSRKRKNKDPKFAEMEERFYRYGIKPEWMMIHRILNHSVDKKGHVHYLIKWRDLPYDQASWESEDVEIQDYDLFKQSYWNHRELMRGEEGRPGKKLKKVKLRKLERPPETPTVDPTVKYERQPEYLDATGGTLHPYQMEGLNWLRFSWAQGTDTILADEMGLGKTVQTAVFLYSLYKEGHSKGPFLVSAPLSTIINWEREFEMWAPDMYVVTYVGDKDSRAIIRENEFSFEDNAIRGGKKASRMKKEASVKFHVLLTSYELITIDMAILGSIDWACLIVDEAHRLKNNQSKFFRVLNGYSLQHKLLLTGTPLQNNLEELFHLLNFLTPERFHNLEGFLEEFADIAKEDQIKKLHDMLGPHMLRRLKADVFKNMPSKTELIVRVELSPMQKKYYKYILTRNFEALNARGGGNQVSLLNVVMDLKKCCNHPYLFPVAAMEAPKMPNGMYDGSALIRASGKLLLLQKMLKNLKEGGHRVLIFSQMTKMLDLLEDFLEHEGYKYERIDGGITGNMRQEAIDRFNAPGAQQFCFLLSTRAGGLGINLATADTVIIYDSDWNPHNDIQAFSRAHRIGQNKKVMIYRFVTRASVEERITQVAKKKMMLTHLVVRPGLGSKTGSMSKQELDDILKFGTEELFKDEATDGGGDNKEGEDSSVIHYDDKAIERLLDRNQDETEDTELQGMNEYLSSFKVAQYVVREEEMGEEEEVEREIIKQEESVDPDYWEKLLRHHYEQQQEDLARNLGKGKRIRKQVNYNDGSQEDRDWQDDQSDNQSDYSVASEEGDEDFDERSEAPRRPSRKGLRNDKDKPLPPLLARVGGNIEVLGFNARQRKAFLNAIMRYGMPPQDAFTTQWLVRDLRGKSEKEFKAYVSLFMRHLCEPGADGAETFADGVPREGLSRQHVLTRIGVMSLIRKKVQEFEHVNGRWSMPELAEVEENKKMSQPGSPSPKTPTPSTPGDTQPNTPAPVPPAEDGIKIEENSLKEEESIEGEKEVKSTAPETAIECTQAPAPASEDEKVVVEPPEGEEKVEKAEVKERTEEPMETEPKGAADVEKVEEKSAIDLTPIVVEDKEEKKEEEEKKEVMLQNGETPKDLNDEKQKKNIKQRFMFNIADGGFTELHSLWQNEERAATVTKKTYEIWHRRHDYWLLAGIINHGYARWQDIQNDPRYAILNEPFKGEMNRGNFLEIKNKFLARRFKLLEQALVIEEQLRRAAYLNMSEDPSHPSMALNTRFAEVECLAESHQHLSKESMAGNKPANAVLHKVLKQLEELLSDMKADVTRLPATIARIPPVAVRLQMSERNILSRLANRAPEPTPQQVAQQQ

B1: in the experiment with His-CHD4, the binding result was “binds”.

For the molecule B2, the binding result with His-ADNP2 and with His-CHD4 was “binds” throughout.
